± gives the uncertainty stated by the source.
B1: Far upstream element-binding protein 3, residues 75 to 150; numbered along this chain, Q96I24 (parent)
chain: RTVITEEFKVPDKMVGFIIGRGGEQISRIQAESGCKIQIASESSGIPERPCVLTGTPESIEQAKRLLGQIVDRCRN

Variants of: B1
Test: abundance fitness (aPCA) (normalised: wild type 0, dead -1); higher = more abundant; growth selection in yeast, the domain comes from the species named
Settings: Homo sapiens
Variant RTVITEEFKVPDKMVGFIIGWGGEQISRIQAESGCKIQIASESSGIPERPCVLTGTPESIEQAKRLLGQIVDRCRN [R21W] has an abundance fitness of -0.187 ± 0.036.
In the case of RTVITEEFKVPDKMVGFIIGRGGEQISRIQAESGCLIQIASESSGIPERPCVLTGTPESIEQAKRLLGQIVDRCRN [K36L], the abundance fitness is reported as -0.057 ± 0.035.
RTVITEEFKVPDKMVGFIIGRGGEQISRIQAESGCKIQIASESSGIPERPCVLTGTPESIEQAWRLLGQIVDRCRN [K64W] gave an abundance fitness of -0.578 ± 0.038.
RTVITEEFKVPDKMVGFIIGRGGEQISRIQAESGCKIQIASESSGIPERPCVLTGTPESIEQALRLLGQIVDRCRN [K64L] showed an abundance fitness of -0.491 ± 0.031.
Variant RTVITEEFKVPDKMVGFIIGRGGEQISRIQAESGCKIQIASESSGIPERPCVLTGTPESIEQAFRLLGQIVDRCRN [K64F] has an abundance fitness of -0.801 ± 0.079.
With RTVITEEFKVPDKMVGFIIGRGGEQISRIQAESGCKIQIASESSGIPERPCVLTGTPESIEQAHRLLGQIVDRCRN [K64H] the abundance fitness was -0.421 ± 0.058.
For RTVITEEFKVPDKMVGFIIGRPGEQISRIQAESGCKIQIASESSGIPERPCVLTGTPESIEQAKRLLGQIVDRCRN [G22P], the abundance fitness was -0.276 ± 0.043.
With RTVITEEFKVPDKMVGFIIGRGGEQISRIQAESGYKIQIASESSGIPERPCVLTGTPESIEQAKRLLGQIVDRCRN [C35Y] the abundance fitness was -0.578 ± 0.12.
With RTVITEEFKVPDKMVGFIIGRGGEQISRIQAESGLKIQIASESSGIPERPCVLTGTPESIEQAKRLLGQIVDRCRN [C35L] the abundance fitness was -0.763 ± 0.046.
RTVITEEFKVPDKMVGFIIGRGGEQISRIQAESGCKIQIASESSGIPERPCVLTNTPESIEQAKRLLGQIVDRCRN [G55N] gave an abundance fitness of -0.989 ± 0.1.
RTVITEEFKVPDKMVGFIIGRGGEQISRIQAESGCKIQIASESSGIPERPCVLTGTHESIEQAKRLLGQIVDRCRN [P57H] gave an abundance fitness of -0.096 ± 0.08.
RTVITEEFKVPDKMVGFIIGRGGEQISRIQAESGCKIQIASESSGIPERPCVLTGTDESIEQAKRLLGQIVDRCRN [P57D] showed an abundance fitness of -0.182 ± 0.055.
For RTVITEEFKVPDKMVGFIIGRGGEQISRIQNESGCKIQIASESSGIPERPCVLTGTPESIEQAKRLLGQIVDRCRN [A31N], the abundance fitness was -0.044 ± 0.063.
Variant RTVITEEFKVPDKMVGFIIGRGGEQISRIQAESGCKIQIKSESSGIPERPCVLTGTPESIEQAKRLLGQIVDRCRN [A40K] has an abundance fitness of -0.024 ± 0.037.
Work on RTVITEEFKVPDKMVGFIIGRGGEQISRIQAESGCKIQIHSESSGIPERPCVLTGTPESIEQAKRLLGQIVDRCRN [A40H] yielded an abundance fitness of -0.032 ± 0.058.
RTVITEEFKVPDKMVGFIIGRGGEQISRIQAESGCKIQIASESSGIPERICVLTGTPESIEQAKRLLGQIVDRCRN [P50I] gave an abundance fitness of 0.004 ± 0.05.
Work on RTVITEEFKVPDKMLGFIIGRGGEQISRIQAESGCKIQIASESSGIPERPCVLTGTPESIEQAKRLLGQIVDRCRN [V15L] yielded an abundance fitness of -0.061 ± 0.03.
Work on RTVITEEFKVPDKMVGFIIGRGGEQISRIQAESGCKIQIASESSPIPERPCVLTGTPESIEQAKRLLGQIVDRCRN [G45P] yielded an abundance fitness of -0.067 ± 0.037.
RTVITEEFKVPDKMVGFIIGRGGEQQSRIQAESGCKIQIASESSGIPERPCVLTGTPESIEQAKRLLGQIVDRCRN [I26Q] showed an abundance fitness of -0.193 ± 0.039.
RTVITEEFKVPDKMVGFIIGRGGEQTSRIQAESGCKIQIASESSGIPERPCVLTGTPESIEQAKRLLGQIVDRCRN [I26T] gave an abundance fitness of -0.262 ± 0.041.
Work on RTVITEEFKVPDKMVGFIIGRGGEQISRIQAESGCKIQIASESSGIPERPCVLTGTPESIEQAKRRLGQIVDRCRN [L66R] yielded an abundance fitness of -0.061 ± 0.028.
Variant RTVITEEFKVPDKMVGFIIGRGGEQISRIQAESGCKIQIASESSGIPERPCVLTGTPESIEQAKRHLGQIVDRCRN [L66H] has an abundance fitness of -0.148 ± 0.052.
With RTVITEEFKVPDKMVGFIIGRGGEQISRIQAESGCKIQIASESSGIPERPCVLTGTPESIEQAKRVLGQIVDRCRN [L66V] the abundance fitness was -0.115 ± 0.028.
With RTVITEEFIVPDKMVGFIIGRGGEQISRIQAESGCKIQIASESSGIPERPCVLTGTPESIEQAKRLLGQIVDRCRN [K9I] the abundance fitness was -0.106 ± 0.059.
With RTVITEEFKVPDKMVGFIIRRGGEQISRIQAESGCKIQIASESSGIPERPCVLTGTPESIEQAKRLLGQIVDRCRN [G20R] the abundance fitness was -0.168 ± 0.028.
For RTNITEEFKVPDKMVGFIIGRGGEQISRIQAESGCKIQIASESSGIPERPCVLTGTPESIEQAKRLLGQIVDRCRN [V3N], the abundance fitness was 0.073 ± 0.093.
RTGITEEFKVPDKMVGFIIGRGGEQISRIQAESGCKIQIASESSGIPERPCVLTGTPESIEQAKRLLGQIVDRCRN [V3G] showed an abundance fitness of -0.166 ± 0.025.
In the case of RWVITEEFKVPDKMVGFIIGRGGEQISRIQAESGCKIQIASESSGIPERPCVLTGTPESIEQAKRLLGQIVDRCRN [T2W], the abundance fitness is reported as -0.133 ± 0.038.
In the case of RTVITEEFKVPDKMVGFIIGRGGHQISRIQAESGCKIQIASESSGIPERPCVLTGTPESIEQAKRLLGQIVDRCRN [E24H], the abundance fitness is reported as 0.059 ± 0.068.
RTVITEEFKVPDKMVGFIIGRGGRQISRIQAESGCKIQIASESSGIPERPCVLTGTPESIEQAKRLLGQIVDRCRN [E24R] showed an abundance fitness of 0.113 ± 0.027.
RTVITEEFKVPDKMVGFIIGRGGEQISRIQAESGCKIQIASESSGIPERPCVLTGLPESIEQAKRLLGQIVDRCRN [T56L] gave an abundance fitness of -0.138 ± 0.031.
In the case of RTVITEEFKVPDKMVGFIIGRGGEQISRIQAESGCKIQIASESSGIPERPCVLTGRPESIEQAKRLLGQIVDRCRN [T56R], the abundance fitness is reported as -0.107 ± 0.027.
Variant RTVITEEFKVPDKMVGFIIGRGGEQISRSQAESGCKIQIASESSGIPERPCVLTGTPESIEQAKRLLGQIVDRCRN [I29S] has an abundance fitness of -0.595 ± 0.038.
With RTVITEEFKVPDKMVGCIIGRGGEQISRIQAESGCKIQIASESSGIPERPCVLTGTPESIEQAKRLLGQIVDRCRN [F17C] the abundance fitness was -0.074 ± 0.046.
RTVITEEFKVPDKMVGFIIGRGGEQISRIQAESGCKIQIASESSGIPERPCVLTGTPESIEQAKRLLGQTVDRCRN [I70T] gave an abundance fitness of 0.014 ± 0.046.
RTVITEEFKVPDKMVGFIIGRGGEQISRIQAEEGCKIQIASESSGIPERPCVLTGTPESIEQAKRLLGQIVDRCRN [S33E] showed an abundance fitness of -0.641 ± 0.048.

Reference: the Human Domainome abundance scans (Beltran et al. 2025)
